Measured values taken from publication PMC8166773.

Molecular target: influenza HA proteins mixture of A/California/7/09 (H1N1), A/Victoria/210/09 (H3N2), and B/Brisbane/
Assay: SPR
Settings: natural protein

Pseudomonas taiwanensis lectin (PTL)
Kd: 8.9 nM
koff: 9.1e-06 s⁻¹
